Measured values: patent US20190169308A1 (ALLIGATOR BIOSCIENCE, published 2019)
One block for each binder: values may come before it.

Tests used:
[1] = target: T1, 5T4-Fc (human, UniProt Q13641 32-355, limits assumed); experiment: dual ELISA: coated 5T4-Fc, detection with CD137-bio
T1 construct: obtained from Peter L. Stern, University of Manchester; also called h5T4-Fc; recombinant 5T4
T1 sequence (looked up): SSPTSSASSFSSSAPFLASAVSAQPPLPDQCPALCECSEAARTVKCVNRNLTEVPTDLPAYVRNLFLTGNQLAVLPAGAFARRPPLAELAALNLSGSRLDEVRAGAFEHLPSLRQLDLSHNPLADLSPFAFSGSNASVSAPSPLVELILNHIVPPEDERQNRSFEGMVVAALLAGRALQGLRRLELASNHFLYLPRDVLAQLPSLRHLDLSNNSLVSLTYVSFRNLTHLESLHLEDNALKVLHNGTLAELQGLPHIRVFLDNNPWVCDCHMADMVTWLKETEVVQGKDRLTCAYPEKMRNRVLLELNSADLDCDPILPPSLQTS
Procedure: Bispecific binding to both targets, CD137 and 5T4, was evaluated using a standard ELISA protocol. Plates (#655074, Greiner Bio-One GmbH, Germany) were pre-coated with 0.5 μg/ml 5T4-Fc (obtained from Professor Peter Stern, University of Manchester) overnight. CD137-5T4 bsAb were diluted from 8 to 2×10⁻³ μg/ml in 1:4 dilutions and added in duplicates of 50 μl to each well. CD137-bio (Ancell #502-030) was used as detection antibody at 0.5 μg/ml and the binding was detected with Streptavidin-HRP (Pierce #21126). The ELISA was developed with SuperSignal ELISA PICO Chemiluminescent substrate (Thermo Scientific Pierce, Rockford, Ill. USA) during 2-10 minutes and read in an automated microplate based multi-detection reader (FLUOstar OPTIMA, Netherlands).

[2] = target: T2, 5T4 (SPR antigen) (UniProt Q13641 32-355, limits assumed, biotinylated on the MASS-1 platform); experiment: SPR Biacore 3000, amine-coupled 5T4, mAb injected (bivalent)
T2 construct: also called biotinylated 5T4
T2 sequence (looked up): T1 sequence (looked up)
Procedure: Binding kinetics of the 5T4-specific mAbs have been studied using two different SPR-based platforms, the Biacore 3000 (GE Healthcare) and the MASS-1 platform (Sierra Sensors). Briefly, 5T4 was captured at the sensor chip surface either via direct amine coupling (Biacore platform) or using a streptavidin coated chip and biotinylated 5T4 (MASS-1 platform). The different 5T4-specific mAbs were then injected over the chip in increasing concentrations and the association and dissociation rates studied in real time. A 1:1 Langmuir model was used for curve fitting.

[3] = target: T3, cynomolgus 5T4 on transfected CHO cells (Macaca mulatta (cynomolgus), UniProt F7CT46 35-420); experiment: flow cytometry, cynomolgus 5T4-transfected CHO cells
T3 construct: also called cyno5T4; cy5T4
T3 sequence: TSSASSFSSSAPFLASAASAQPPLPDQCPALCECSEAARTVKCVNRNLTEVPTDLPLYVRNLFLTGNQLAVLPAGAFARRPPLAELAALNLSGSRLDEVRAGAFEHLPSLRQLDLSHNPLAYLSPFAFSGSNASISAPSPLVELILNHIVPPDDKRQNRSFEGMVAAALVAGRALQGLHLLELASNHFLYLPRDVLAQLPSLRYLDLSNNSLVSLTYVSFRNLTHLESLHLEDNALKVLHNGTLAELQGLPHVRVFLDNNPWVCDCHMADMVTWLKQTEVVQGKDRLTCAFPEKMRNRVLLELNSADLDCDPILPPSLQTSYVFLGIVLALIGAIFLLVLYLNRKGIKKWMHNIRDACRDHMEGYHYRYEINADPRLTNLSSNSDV
Procedure: (§1) The potency of 5T4 antibodies in binding to cynomolgus 5T4 was determined by flow cytometry. CHO cells were stably transfected with […] (cynomolgus) 5T4. […] Samples were analysed either on a FACSCalibur or a FACSverse (BD Biosciences, Heidelberg, Germany) and mean fluorescence intensity (MFI) determined. […] To compare the EC50 values between human and cynomolgus 5T4, the cy5T4/hu5T4 ratio was calculated from the experiment with the full dose-response.

[4] = target: T1, 5T4-Fc; experiment: ELISA, coated 5T4-Fc
Procedure: ELISA was performed using a standard protocol. Plates (#655074, Greiner Bio-One GmbH, Germany) were pre-coated with 0.5 μg/ml 5T4-Fc (obtained from Peter L. Stern, University of Manchester) overnight. 5T4 antibodies were diluted from 6 to 1.5×10⁻³ μg/ml in 1:4 dilutions and added in duplicates of 50 μl to each well. Binding was detected with rabbit anti-h kappa L-chain-HRP (P0129, Dako Denmark) and the ELISA was developed with SuperSignal ELISA PICO Chemiluminescent substrate (Thermo Scientific Pierce, Rockford, Ill. USA) for 2-10 minutes and read in an automated microplate based multi-detection reader (FLUOstar OPTIMA, Netherlands).

[5] = target: T4, human 5T4 on transfected cells (human, UniProt Q13641 32-420); experiment: flow cytometry, 5T4-transfected B16 cells
T4 construct: whole, on cells; also called B16-5T4; CHOh5T4
T4 sequence (looked up): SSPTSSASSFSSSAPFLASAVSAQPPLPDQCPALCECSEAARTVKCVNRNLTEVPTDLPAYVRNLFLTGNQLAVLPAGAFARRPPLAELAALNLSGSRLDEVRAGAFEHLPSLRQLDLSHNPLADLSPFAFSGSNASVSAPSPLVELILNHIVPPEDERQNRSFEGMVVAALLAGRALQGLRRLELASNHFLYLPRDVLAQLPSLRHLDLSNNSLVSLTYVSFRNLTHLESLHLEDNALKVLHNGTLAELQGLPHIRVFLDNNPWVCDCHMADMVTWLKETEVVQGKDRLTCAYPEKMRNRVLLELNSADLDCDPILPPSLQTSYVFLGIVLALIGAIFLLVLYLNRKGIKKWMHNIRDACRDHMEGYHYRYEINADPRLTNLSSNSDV

[6] = target: T3, cynomolgus 5T4 on transfected CHO cells; experiment: flow cytometry, 5T4-transfected CHO cells
Procedure: as §1

[7] = target: T5, human/mouse 5T4 chimera E1; experiment: flow cytometry, cells with human/mouse 5T4 chimera
T5 construct: on transfected CHO cells
Procedure: (§2) Epitope mapping was performed by investigation of loss of binding by the antibodies using a panel of human/mouse chimeric 5T4 constructs by flow cytometry. […] Two strategies were used for the epitope mapping as illustrated in FIG. 5. In one approach, seven human/mouse 5T4 chimeras were constructed based on dividing 5T4 into seven different domains (FIG. 5). By replacing each domain with the corresponding mouse sequence seven human/mouse 7 5T4 human/mouse chimeras were generated. The chimeras were generated using the human protein 5T4 sequence NP_006661.1 (reference mRNA sequence NM_006670.4) and the corresponding mouse sequence NP_035757.2 (reference mRNA sequence NM_011627.4). The human/mouse chimeric DNA constructs, as well as human and mouse wild-type 5T4, were cloned into pcDNA3.1 expression vectors. […] As controls human 5T4 and mouse 5T4-transfected cells were used. For flow cytometric analysis, cells were stained with different 5T4 antibodies diluted in FACS buffer (PBS, 0.5% BSA). […] Samples were analysed by FACSverse (BD Biosciences, Heidelberg, Germany) and % positive cells were determined. To compensate for variations in % 5T4 positive cells in the various transfected populations, binding levels were normalized within each chimera by dividing % positive cells for each clone with % positive cells for the clones resulting in the highest % positive cells (% pos cellscloneX/% positive cellsₘₐₓ). A normalized value ≤0.75 was defined as mAb binding being dependent on the replaced region, whereas a normalized value ≤0.25 was defined as complete dependence.

[8] = target: T6, human/mouse 5T4 chimera E5; experiment: flow cytometry, cells with human/mouse 5T4 chimera
T6 construct: on transfected CHO cells
Procedure: as §2

[9] = target: T7, human/mouse 5T4 chimera E6; experiment: flow cytometry, cells with human/mouse 5T4 chimera
T7 construct: on transfected CHO cells
Procedure: as §2

[10] = target: T8, human/mouse 5T4 chimera E2; experiment: flow cytometry, cells with human/mouse 5T4 chimera
T8 construct: on transfected CHO cells
Procedure: as §2

[11] = target: T9, human/mouse 5T4 chimera E3; experiment: flow cytometry, cells with human/mouse 5T4 chimera
T9 construct: on transfected CHO cells
Procedure: as §2

[12] = target: T10, human/mouse 5T4 chimera E7; experiment: flow cytometry, cells with human/mouse 5T4 chimera
T10 construct: on transfected CHO cells
Procedure: as §2

[13] = target: T11, human/mouse 5T4 chimera E4; experiment: flow cytometry, cells with human/mouse 5T4 chimera
T11 construct: on transfected CHO cells
Procedure: as §2

[14] = target: T12, mouse 5T4 on transfected cells (mouse, UniProt Q9Z0L0 32-426); experiment: flow cytometry, mouse 5T4-transfected cells
T12 construct: whole, on cells; also called murine 5T4
T12 sequence (looked up): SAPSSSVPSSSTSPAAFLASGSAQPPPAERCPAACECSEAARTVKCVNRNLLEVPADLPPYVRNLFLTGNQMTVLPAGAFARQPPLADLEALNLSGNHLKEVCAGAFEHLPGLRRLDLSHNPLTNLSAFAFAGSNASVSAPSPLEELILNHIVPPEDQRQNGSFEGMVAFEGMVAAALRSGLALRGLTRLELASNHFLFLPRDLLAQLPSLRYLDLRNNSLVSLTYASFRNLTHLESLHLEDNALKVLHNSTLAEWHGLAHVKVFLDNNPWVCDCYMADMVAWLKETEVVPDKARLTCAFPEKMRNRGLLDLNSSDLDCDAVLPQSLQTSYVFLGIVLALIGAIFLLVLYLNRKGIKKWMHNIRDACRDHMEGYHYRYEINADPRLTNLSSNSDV

- EC50 [1]: 1.91 nM
B1: 1626-1208 (bispecific antibody)
heavy: not shown
light: DIQMTQSPSSLSASVGDRVTITCRASQSISSYLNWYQQKPGKAPKLLIYAASSLQSGVPSRFSGSGSGTDFTLTISSLQPEDFATYYCQQGTGYGPLTFGQGTKLEIKRTVAAPSVFIFPPSDEQLKSGTASVVCLLNNFYPREAKVQWKVDNALQSGNSQESVTEQDSKDSTYSLSSTLTLSKADYEKHKVYACEVTHQGLSSPVTKSFNRGEC
notes: Morrison format IgG-scFv

- EC50 [1]: 0.4 nM
B2: 1626-1210 (bispecific antibody)
heavy: not shown
light: B1 light
notes: Morrison format IgG-scFv

- kon [2]: 450000 M⁻¹ s⁻¹
- EC50 [3]: 30.7 nM
- EC50 [4]: 0.56 nM
- EC50 [5]: 1.4 nM
- Ratio EC50cyno5T4/h5T4 [6]: 140
- normalized % positive cells [7]: 0.89
- normalized % positive cells [8]: 0.84
- normalized % positive cells [9]: 0.03
- normalized % positive cells [10]: 0.9
- normalized % positive cells [11]: 0.93
- normalized % positive cells [12]: 0.88
- normalized % positive cells [13]: 1
- binding result [14]: no binding
B3: 1212/1213 (antibody, V domains shown)
VH: EVQLLESGGGLVQPGGSLRLSCAASGFTFSSYAMSWVRQAPGKGLEWVSYISSYGGYTSYADSVKGRFTISRDNSKNTLYLQMNSLRAEDTAVYYCARYHSGVLDYWGQGTLVTVSS
VL: DIQMTQSPSSLSASVGDRVTITCRASQSISSYLNWYQQKPGKAPKLLIYAASSLQSGVPSRFSGSGSGTDFTLTISSLQPEDFATYYCQQYYYHYLLTFGQGTKLEIK
